Measured values from patent US20210317456.

system: Immunoglobulin G (total IgG) (Homo sapiens); test: filter; conditions: n (P) = 2NapdU; SB18, 5 mM MgCl2, 37 C

Sequence | Kd [nM]
CAAGACTGCGGTTACCTTGTAGGCGATTATGGGCAG [5334-8_10] | 5.38
CATCCAAGACTGCGGTTACCTTGTAGGCGATTATGGGCAG [5334-8_8] | 9.69
GACTGCGGTTACCTTGTAGGCGATTATGGGCAG [5334-8_21] | 6.77
CACATCCAAGACTGCGGTTACCTTGTAGGCGATTATGGGCAG [5334-8_7] | 5.89
ACTCCACATCCAAGACTGCGGTTACCTTGTAGGCGATTATGGGCAG [5334-8_5] | 5.92

same assay, conditions: n (P) = 2NapdU; considered no binding

Sequence | Kd [nM]
CGGCACTCCACATCCAAGACTGCGGTTACCTTGTAGGC [5334-8_17] | > 1000
CGGCACTCCACATCCAAGACTGCGGTTACCTTGTAG [5334-8_18] | > 1000
CGGCACTCCACATCCAAGACTGCGGTTACCTTGTAGGCGA [5334-8_16] | > 1000
AGACTGCGGTTACCTTGTAGGCGATT [5334-8_33] | > 1000
AGACTGCGGTTACCTTGTAGGCGATTAT [5334-8_32] | > 1000

same assay, conditions: n (P) = NapdU; SB18, 5 mM MgCl2, 37 C

Sequence | Kd [nM]
GATGGCGAACTCCCTGAATGCTCTTGTCTT [14125-144_28] | 17.2
GCCTGCACGATGGCGAACTCCCTGAATGCTCTTGTCTTAAGTCC [14125-144_14] | 15.8
ATGGCGAACTCCCTGAATGCTCTTGTCTTA [14125-144_25] | 7.55
GCACGATGGCGAACTCCCTGAATGCTCTTGTCTTAAGTCCCCAACA [14125-144_5] | 8.87
TACGGTACGATTTTCAGTTGGATCCAGTACC [5406-56_39] | 6.74
GATGGCGAACTCCCTGAATGCTCTTGTCTTA [14125-144_24] | 9.89
ACGGTACGATTTTCAGTTGGATCCAGTAC [5406-56_46] | 8.14
ATGGCGAACTCCCTGAATGCTCTTGTCTTAA [14125-144_21] | 5.5
CGGTACGATTTTCAGTTGGATCCAGTACCTG [5406-56_29] | 3.49
ACGGTACGATTTTCAGTTGGATCCAGTACC [5406-56_40] | 4.32
TACGGTACGATTTTCAGTTGGATCCAGTACCTG [5406-56_27] | 5.56
GCCTGCACGATGGCGAACTCCCTGAATGCTCTTGTCTTAA [14125-144_16] | 8.82
CTGCACGATGGCGAACTCCCTGAATGCTCTTGTCTTAAGTCCCCAACA [14125-144_4] | 10.5
GGTACGATTTTCAGTTGGATCCAGTACCT [5406-56_36] | 3.44
ACGGTACGATTTTCAGTTGGATCCAGTACCTG [5406-56_28] | 3.64

same assay, conditions: n (P) = NapdU; SB18, 5 mM MgCl2, 37 C; sequence identical to _21 to _25

Sequence | Kd [nM]
GGTACGATTTTCAGTTGGATCCAGTACCTGG [5406-56_24] | 5.1
GTACGATTTTCAGTTGGATCCAGTACCTGG [5406-56_25] | 21.9
CGGTACGATTTTCAGTTGGATCCAGTACCTGG [5406-56_23] | 5.48

same assay, conditions: n (P) = NapdU; Zorbax bead partitioning, SB18, 5 mM MgCl2, 37 C; printed sequence identical to _21 to _25, length unclear

Sequence | Kd [nM]
ACGGTACGATTTTCAGTTGGATCCAGTACCTGG [5406-56_22] | 4.93

same assay, conditions: n (P) = NapdU; considered no binding

Sequence | Kd [nM]
ACTCCCTGAATGCTCTTGTCTTAAGTCCCCAACA [14125-144_11] | > 1000
GATGGCGAACTCCCTGAATGCTCTTGTCT [14125-144_32] | > 1000
GGCGAACTCCCTGAATGCTCTTGTCT [14125-144_35] | > 1000
GCCTGCACGATGGCGAACTCCCTGAATGCTCTTG [14125-144_19] | > 1000
ATGGCGAACTCCCTGAATGCTCTTGTC [14125-144_37] | > 1000
ATGGCGAACTCCCTGAATGCTCTTGTCT [14125-144_33] | > 1000

system: Immunoglobulin G (total IgG); test: pulldown; conditions: P = 2NapdU; SB18, 37C, bead partitioning

Sequence | Kd [nM]
CTGCGGTTACCTTGTAGGCGATTATGGGCAG [5334-8_23] | 4.04
CGGTTACCTTGTAGGCGATTATGGGCAG [5334-8_26] | > 1000
GCGGTTACCTTGTAGGCGATTATGGGCAG [5334-8_25] | 5.83
AGACTGCGGTTACCTTGTAGGCGATTATGGGCAG [5334-8_11] | 4.69
TCCACATCCAAGACTGCGGTTACCTTGTAGGCGATTATGGGCAG [5334-8_6] | 7.89
GGTTACCTTGTAGGCGATTATGGGCAG [5334-8_27] | 279
AGACTGCGGTTACCTTGTAGGCGATTATGG [5334-8_31] | > 1000
CGGCACTCCACATCCAAGACTGCGGTTACCTTGT [5334-8_19] | > 1000
AGACTGCGGTTACCTTGTAGGCGATTATGGGC [5334-8_29] | 15.6
CGGCACTCCACATCCAAGACTGCGGTTACCTTGTAGGCGATTATGGGC [5334-8_12] | 25.8
CGGCACTCCACATCCAAGACTGCGGTTACCTTGTAGGCGATTATGG [5334-8_13] | > 1000
GCACTCCACATCCAAGACTGCGGTTACCTTGTAGGCGATTATGGGCAG [5334-8_4] | 17.3
AGACTGCGGTTACCTTGTAGGCGATTATGGG [5334-8_30] | 80.9
CGGCACTCCACATCCAAGACTGCGGTTACCTTGTAGGCGATT [5334-8_15] | > 1000

same assay, conditions: P = NapdU; SB18, 37C, bead partitioning

Sequence | Kd [nM]
GTACGATTTTCAGTTGGATCCAGTACCTG [5406-56_31] | 14.8
CCTCCATACGGTACGATTTTCAGTTGGATCCAGTACCTGGCTGG [5406-56_14] | 3
ACGATTTTCAGTTGGATCCAGTACCTGGCTGGAGAGAA [5406-56_9] | > 1000
TACGATTTTCAGTTGGATCCAGTACC [5406-56_44] | 36.2
CCTCCATACGGTACGATTTTCAGTTGGATCCAGTACCTGGCTGGAG [5406-56_13] | 2.61
TGGCGAACTCCCTGAATGCTCTTGTC [14125-144_38] | > 1000
GCCTGCACGATGGCGAACTCCCTGAATGCTCTTGTCTTAAGT [14125-144_15] | 14.6
TGGCGAACTCCCTGAATGCTCTTGTCTTAAGTCCCCAACA [14125-144_8] | 6.82
CCTCCATACGGTACGATTTTCAGTTGGATCCAGTACCT [5406-56_17] | 4.14
GCCTGCACGATGGCGAACTCCCTGAATGCTCTTGTC [14125-144_18] | > 1000
CCTCCATACGGTACGATTTTCAGTTGGATCCAGTACCTGG [5406-56_16] | 2.58
CGGTACGATTTTCAGTTGGATCCAGTACC [5406-56_41] | 2.74
TTTTCAGTTGGATCCAGTACCTGGCTGGAGAGAA [5406-56_11] | > 1000
GGCGAACTCCCTGAATGCTCTTGTCTT [14125-144_31] | > 1000
ACGATGGCGAACTCCCTGAATGCTCTTGTCTTAAGTCCCCAACA [14125-144_6] | 7.49
GAACTCCCTGAATGCTCTTGTCTTAAGTCCCCAACA [14125-144_10] | > 1000
TGGCGAACTCCCTGAATGCTCTTGTCTTAA [14125-144_22] | 3.55
GCGAACTCCCTGAATGCTCTTGTCTTAAGTCCCCAACA [14125-144_9] | > 1000
CGGTACGATTTTCAGTTGGATCCAGTACCTGGCTGGAGAGAA [5406-56_7] | 13

Sequence | Kd [nM]
TCCATACGGTACGATTTTCAGTTGGATCCAGTACCTGGCTGGAGAGAA [5406-56_4] | 3.11
CCTCCATACGGTACGATTTTCAGTTGGATCCAGTACCTGGCTGGAGAG [5406-56_12] | 2.88
GATTTTCAGTTGGATCCAGTACCTGGCTGGAGAGAA [5406-56_10] | > 1000
GTACGATTTTCAGTTGGATCCAGTACCT [5406-56_37] | 9.44
CATACGGTACGATTTTCAGTTGGATCCAGTACCTGGCTGGAGAGAA [5406-56_5] | 7.91
GGCGAACTCCCTGAATGCTCTTGTCTTAA [14125-144_23] | > 1000
TACGATTTTCAGTTGGATCCAGTACCT [5406-56_38] | > 1000
TACGGTACGATTTTCAGTTGGATCCAGTACCTGGCTGGAGAGAA [5406-56_6] | 9.05
GTACGATTTTCAGTTGGATCCAGTAC [5406-56_49] | 17.6
CCTCCATACGGTACGATTTTCAGTTGGATCCAGT [5406-56_19] | > 1000
CCTCCATACGGTACGATTTTCAGTTGGATCCAGTACCTGGCT [5406-56_15] | 4.64
TGGCGAACTCCCTGAATGCTCTTGTCT [14125-144_34] | > 1000
TGGCGAACTCCCTGAATGCTCTTGTCTTA [14125-144_26] | 5.03
CCTCCATACGGTACGATTTTCAGTTGGATCCAGTAC [5406-56_18] | 42.2
GGCGAACTCCCTGAATGCTCTTGTCTTA [14125-144_27] | > 1000
TACGATTTTCAGTTGGATCCAGTACCTG [5406-56_32] | 75.4
GCCTGCACGATGGCGAACTCCCTGAATGCTCTTGTCTT [14125-144_17] | 15.4
TACGATTTTCAGTTGGATCCAGTACCTGG [5406-56_26] | 64.3
GTACGATTTTCAGTTGGATCCAGTACCTGGCTGGAGAGAA [5406-56_8] | 78.1

same assay, conditions: P = NapdU; SB18, 37C; 25-mer core

Sequence | Kd [nM]
TACGATTTTCAGTTGGATCCAGTAC [5406-56_50] | 18.8

same assay, conditions: P = NapdU; SB18, 37C; table prints a shorter sequence than the listing for SEQ 18

Sequence | Kd [nM]
TACGGTACGATTTTCAGTTGGATCCAGTACCTGG [5406-56_21] | 8.13
